The results in this text go back to PMC7891125 (Cell, 2021).

Experiment [1] concerns the target T1, His-tagged SARS-CoV-2 RBD (Severe acute respiratory syndrome …, UniProt P0DTC2). The experiment can be described thus: BLI. The settings on record: both partners purified.
Experiment [2] has as its target T2, SARS-CoV-2 spike on intact virus (SARS-CoV-2/human/AUS/VIC01/2020) (SARS-CoV-2, isolate human/AUS/VIC01/2020).
T2 construct: also called intact SARS-CoV-2; virions; source: virus grown in Vero cells, supernatant; captured on plates by mAb31
The experiment can be described thus: ELISA; whole virus ELISA: SARS-CoV-2 virus captured on plates coated with mouse anti-spike mAb31, serial dilutions of IgG or Fab, ALP anti-human IgG (Fab-specific); Kd = concentration at half-maximal binding by nonlinear regression. The settings on record: one partner purified. A general note: In an ELISA, binding on a coated surface is turned into a signal by an enzyme label.

Experiment [3] concerns the target T2, SARS-CoV-2 spike on intact virus …. The experiment is described as follows: cell-based or functional assay.
Experiment [4] has as its target T1, His-tagged SARS-CoV-2 RBD. The experiment can be described thus: BLI; competition assay, Octet RED96e, His-tagged RBD on Anti-HIS (HIS2) biosensors, saturating antibody 15 ug/ml then competing IgG 5 ug/ml; 10 mM HEPES pH 7.4, 150 mM NaCl. The settings on record: both partners purified. On the technique in general: Biolayer interferometry detects binding as a change in optical thickness at a sensor tip.

The target of experiment [5] is His-tagged RBD for structural analysis (SARS-CoV-2 Wuhan-Hu-1 (MN908947), UniProt P0DTC2, treated with endoglycosidase H1; 'glycosylated RBD' was used for the complex with Fab S309 and Fab384). The experiment is described as follows: crystal structure. The settings on record: both partners purified.

B1: Fab 269 (Fab, V domains shown)
VH: QVQLVESGGGLIQPGGSLRLSCAASGLTVNRNYMSWIRQAPGKGLEWVSVIYSGGSTFYADSVKGRFTISRDNSKNTLSLQMNSLRAEDTAIYYCARDFYEGSFDIWGQGTMVTVSS
VL: AIQLTQSPSFLSASIGDRVTITCRASQGISSYLAWYQQKPGKAPKLLIYAASTLQSGVPSRFSGSGSGTEFTLTISSLQPEDFASYYCQQLNSYPAPVFGPGTKVDIK
Turning to B1, in experiment [1], binding was characterised by a dissociation constant (Kd) of 2.2 nM; the off-rate (koff) (in general, a measure of how fast the partners let go of each other) was determined as 0.00039 s⁻¹; the on-rate constant (kon) (in general, the second-order rate constant of association) was 180000 M⁻¹ s⁻¹.

B2: mAb 159 (IgG) (antibody, V domains shown)
VH: EVQLVESGGGVVQPGRSLRLSCAASGFTFSSYGMHWVRQAPGKGLEWVALISYDGGNRYYADSVKGRFTISRDNSKNTLYLQMNRLRAEDTAMYYCAKDRDDGWDWYYFMDVWGKGTTVTVSS
VL: DIQLTQSPGTLSLSPGERATLSCRASQSISGNYLAWYQHKPGQAPRLLIYGASTRATGIPDRFSGSGSGTDFTLTISRLEPEDFAVYYCQQYGSSYTFGQGTKVEIK
notes: IgG1; also called 159 (anti-spike); IgG159
On to B2, for which, in experiment [2], the affinity, expressed as Kd, was 0.19 nM.

B3: Fab 159 (Fab, V domains shown)
VH: B2 VH
VL: B2 VL
notes: also called 159 Fab
Consider B3, for which, in experiment [2], binding was characterised by a dissociation constant (Kd) of 0.29 nM.

B4: Fab 88 (Fab, V domains shown)
VH: QLQLQESGPGLVKPSQTLSLTCTVSGGSISSGSYNWTWIRQPAGKGLEWIGRIYNSGSTNYNPSLKSRVTISVDTSKNQLSLKVRSVTAADTAVYYCARHCSGGTCYPKYYYGMDVWGQGTTVTVSS
VL: QSALTQPPSVSEAPRQRVTISCSGSSSNIGNNAVNWYQQFPGKAPKLLIYYDDLLPSGVSDRFSGSKSGTSASLAISGVQSEDEADYYCAAWDDSLNVVVFGGGTKLTVL
notes: also called 88 Fab
Consider B4, for which, in experiment [2], the Kd (as a rule, the concentration at which binding is half-saturated) was 1.21 nM. The “Table S7: Neutralization IC50 (nM), FRNT of authentic SARS-CoV-2, Fab” value (from here on “Table S7: Neutralization IC50 (nM), FRNT … Fab”) in experiment [3] was determined as 6.95 nM.

B5: mAb 88 (IgG) (antibody, V domains shown)
VH: B4 VH
VL: B4 VL
notes: IgG1
In the case of B5, the Kd in experiment [2] was determined as 0.25 nM.

B6: Fab 45 (Fab, V domains shown)
VH: QVQLVESGGGVVQPGRSLRLSCAASGFTFSTYAMHWVRQAPGKGLEWVAVLSYDGSNKYYADSVKGRFTISRDNSKNTLYLQMNSLRAEDTAVYYCAKGGSYAYYYYMDVWGKGTTVTVSS
VL: not shown
B6: in experiment [1], the dissociation constant Kd turned out to be 5.9 nM, the koff was found to be 0.00046 s⁻¹ and the kon amounted to 78000 M⁻¹ s⁻¹.

B7: Fab 316 (Fab, V domains shown)
VH: not shown
VL: QAVLTQPPSASGSPGQSVTISCTGTSSDVGGYNYVSWYQQHPGKAPKLMIYEVSKRPSGVPDRFSGSKSGNTASLTVSGLQAEDEADYYCSSYAGSNHWVFGGGTKLTVL
In experiment [1], B7 showed an off-rate (koff) of 0.00071 s⁻¹ and a kon of 350000 M⁻¹ s⁻¹. Besides, in experiment [2], the Kd amounted to 8.76 nM. The “Table S7: Neutralization IC50 (nM), FRNT … Fab” value in experiment [3] amounted to 27.6 nM.

B8: mAb 316 (IgG) (antibody, V domains shown)
VH: not shown
VL: B7 VL
notes: IgG1
B8 registered an equilibrium dissociation constant (Kd) in experiment [2] of 0.13 nM.

B9: mAb 384 (IgG) (antibody, V domains shown)
VH: EVQLVESGGGLVKPGESLRLSCAASGFTFSDYYMTWIRQAPGKGLEWVSYIRSSGHTIYYADSVKGRFTISRDNAKNSLYLQMNSLRVEDTAVYYCARGGVLRFLEWPLNAFDIWGQGTMVTVSS
VL: DIQLTQSPSSLSASVGDRVTITCRASQGISNYLAWYQQKPGKVPKLLIYAASTLQSGVPSRFSGSGSGTDFTLTISSLQPEDVATYYCQKYNNALGTFGQGTKVEIK
notes: IgG1
Take B9: the binding result in experiment [4] is listed as “binds”.

B10: Fab384 (Fab, V domains shown)
VH: B9 VH
VL: B9 VL
Turning to B10, in experiment [5], the binding result is recorded as “binds”.

B11: Fab 158 (Fab, V domains shown)
VH: EVQLLESGGDLIQPGGSLRLSCAASGVTVSSNYMSWVRQAPGKGLEWVSIIYPGGSTFYADSVKGRFTISRDNSKNTLYLQMHSLRAEDTAVYYCARDLGSGDMDVWGKGTTVTVSS
VL: DIVMTQSPSFLSASVGDRVTITCRASQGISSYLAWYQQKPGKAPKLLIQAASTLQSGVPSRFSGSGSGTEFTLTISSLQPEDFATYYCQQLNSYRYTFGQGTKVEIK
In experiment [1], B11 returned a Kd of 0.7 nM, a koff of 8.4e-05 s⁻¹ and a kon of 120000 M⁻¹ s⁻¹. For the same molecule, in experiment [2], the Kd amounted to 3.73 nM. The “Table S7: Neutralization IC50 (nM), FRNT … Fab” value in experiment [3] is 4.12 nM.

B12: mAb 158 (IgG) (antibody, V domains shown)
VH: B11 VH
VL: B11 VL
notes: IgG1
With B12, in experiment [2], binding was characterised by a dissociation constant (Kd) of 0.5 nM.

B13: Strep-tagged Fab 158 (Fab, V domains shown)
VH: B11 VH
VL: B11 VL
notes: also called Fab58 (as printed in the crystallization paragraph); source: HEK293T, transient transfection, purified (Strep-Tactin)
For B13, in experiment [5], the binding result was “binds”.

B14: chimeric mAb 253H165L (IgG) (antibody, V domains shown)
VH: not shown
VL: DIVMTQSPGTLSLSPGERATLSCRASQSVRSSYLAWYQQKPGQAPRLLIYGASRRGTGIPDRFSGSGSGTDFTLTISRLEPEDFAVYYCQQYGSSPWTFGQGTKVEIK
B14 came in with a Kd in experiment [2] of 0.09 nM. For the same molecule, in experiment [3], the “Table S7: Neutralization IC50 (nM), FRNT of authentic SARS-CoV-2” value stood at 0.03 nM.

B15: chimeric Fab 253H165L (Fab, V domains shown)
VH: not shown
VL: B14 VL
B15 gave a Kd in experiment [2] of 5.02 nM. For the same molecule, the “Table S7: Neutralization IC50 (nM), FRNT … Fab” value in experiment [3] turned out to be 5.22 nM.

B16: Fab 40 (Fab, V domains shown)
VH: QVQLVESGGGLVQPGGSLRLSCAVSGFTVSRNYMSWVRQAPGKGLEWVSLIYSGGSTFYADSVKGRFTISRDNSKNTLYLQMNSLRAEDTAVYYCARDLFHRSGYHDYWGQGTLVTVSS
VL: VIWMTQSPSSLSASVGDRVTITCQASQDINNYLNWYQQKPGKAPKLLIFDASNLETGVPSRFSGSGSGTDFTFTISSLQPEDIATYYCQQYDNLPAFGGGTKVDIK
notes: also called 40 Fab
In the case of B16, in experiment [2], binding was put at a Kd of 1.23 nM. Also, the “Table S7: Neutralization IC50 (nM), FRNT … Fab” value in experiment [3] was 45.7 nM.

B17: mAb 40 (IgG) (antibody, V domains shown)
VH: B16 VH
VL: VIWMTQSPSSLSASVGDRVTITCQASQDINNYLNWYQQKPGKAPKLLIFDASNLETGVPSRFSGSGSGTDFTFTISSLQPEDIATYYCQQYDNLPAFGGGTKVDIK
notes: IgG1
Molecule B17 yielded a Kd in experiment [2] of 0.33 nM.

B18: Fab 150 (Fab, V domains shown)
VH: QVQLVESGGGLIQPGGSLRLSCAASGVTVSSNYMSWVRQAPGKGLEWVSIIYSGGTTYYADSVKGRFTISRDSSMNTLYLQMNSLRAEDTAVYYCARDLMVYGIDVWGQGTTVTVSS
VL: EIVMTQSPSSLSASVGDRVTITCRASQGISSYLAWYQQKPGKAPKLLIYAASTLQSGVPSRFSGSGSGTDFTLTISSLQPEDFATYYCQQLDSYPPGYTFGQGTKVDIK
Consider B18, for which, in experiment [2], the Kd was 0.75 nM. Moreover, the “Table S7: Neutralization IC50 (nM), FRNT … Fab” value in experiment [3] turned out to be 0.61 nM.

B19: mAb 150 (IgG) (antibody, V domains shown)
VH: B18 VH
VL: B18 VL
notes: IgG1
As to B19, in experiment [2], binding was put at a Kd of 0.24 nM.

B20: mAb 75 (IgG) (antibody, V domains shown)
VH: QVQLVESGGGVVQPGRSLRLSCAASGFTFNNYPLHWVRQAPGKGPEWVAVISQDGGNKYYVDSVKGRFTISRDNSKNTLYLQMNNLRAEDTALYYCARDVVVVVAARNHYYNGMDVWGQGTTVTVSS
VL: DIQLTQSPSSVSASVGDRVTITCRASQGISSWLAWYQQKPGKAPKLLIYAVSSLQSGVPSRFSGSGSGTDFTLTISSLQPEDFATYYCQQAKSFPFTFGPGTKVEIK
notes: IgG1
As to B20, the binding result in experiment [4] is given as “binds”.

B21: Fab75 (Fab, V domains shown)
VH: B20 VH
VL: B20 VL
notes: also called mAb 75
For the molecule B21, the binding result in experiment [5] is recorded as “binds”.
